Reference: patent US20230109208A1 (priority 2020, published 2023)
“And” between values parts separate entries of the source, which are not always exact repeats. Identical values can stand only once. Like-named read-outs stand apart in the source and are kept apart here.

Experiments:
COVID-19 (SARS-CoV-2) = settings: cited from earlier work; for Mean Days to Discharge (**median): Lopinavir/Ritonavir cohort
[1] = system: COVID-19 associated chronic ARDS (SARS-CoV-2); assay type: in vivo, human; settings: one patient
Procedure: Hospitalized subject with confirmed COVID-19 pneumonia and established risk factors for poor outcomes was treated in the ICU for 12 weeks using standard supportive care for chronic acute respiratory distress syndrome (ARDS). […] Patient characteristics, clinical and laboratory outcomes, and adverse events were recorded through duration of hospitalization.
Over the course of their ICU stay, the patient developed acute respiratory distress syndrome (ARDS).

human GM-CSF = human GM-CSF (Homo sapiens, UniProt P04141); experiment: Binding of lenzilumab to GM-CSF
human GM-CSF, sequence (P04141 18-144): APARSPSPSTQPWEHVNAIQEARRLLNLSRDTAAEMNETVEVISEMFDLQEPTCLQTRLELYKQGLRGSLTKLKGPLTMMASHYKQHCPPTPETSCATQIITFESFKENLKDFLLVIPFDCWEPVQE

[2] = Four completed clinical trials of lenzilumab (healthy volunteers, asthma, rheumatoid arthritis, CMML); assay type: in vivo, human; settings: 113 individuals in 4 completed trials
[3] = system: severe and critical COVID-19 pneumonia (SARS-CoV-2); settings: for deaths / mortality: data cutoff May 1, 2020; for ALT after lenzilumab / AST after lenzilumab: individual patients: peak (patient 4) or at discharge (patients 5, 8)
[4] = system: severe COVID-19 pneumonia (SARS-CoV-2); settings: for Incidence of IMV / Incidence of IMV and/or death / Incidence of death / Incidence of clinical improvement: n = 12
[5] = 12 patients (same cohort in Examples 8 and 10)
[6] = individual patient narratives, listed as lenzilumab
[7] = one patient, pretreatment vs 48 hours post-lenzilumab
[8] = patient 5 at discharge, unit not given

Tocilizumab: anti-IL6 receptor monoclonal antibody; IL-6 antagonist
Mean Days to Discharge (COVID-19 (SARS-CoV-2); Tocilizumab cohort): 13.5 days

lopinavir and ritonavir [Lopinavir/Ritonavir]
Mean Days to Discharge (**median) (COVID-19 (SARS-CoV-2)): 13** days
Mean Days to Discharge (**median) (COVID-19 (SARS-CoV-2); listed as Lopinavir-Ritonavir): 13 days

B1: Lenzilumab: Humaneered recombinant monoclonal antibody, derived from mouse antibody LMM102, targeting and neutralizing human GM-CSF (antibody, chains of the INN, looked up, V domains shown)
VH: QVQLVQSGAEVKKPGASVKVSCKASGYSFTNYYIHWVRQAPGQRLEWMGWINAGNGNTKYSQKFQGRVTITRDTSASTAYMELSSLRSEDTAVYYCVRRQRFPYYFDYWGQGTLVTVSS
VL: EIVLTQSPATLSVSPGERATLSCRASQSVGTNVAWYQQKPGQAPRVLIYSTSSRATGITDRFSGSGSGTDFTLTISRLEPEDFAVYYCQQFNKSPLTFGGGTKVEIK
lymphopenia post lenzilumab [1]: appeared to improve
infusion-related or systemic side effects ([1]; 600 mg IV every 8 hours, 3 doses): No infusion-related or systemic side effects
binding affinity (human GM-CSF): picomolar range
tolerability, frequency and severity of adverse events [2]: very well tolerated
hemoglobin on day 6 in one patient ([3]; 10.3 on day 0, renal biopsy day 2, subcapsular hematoma): 7.9 g/dL
median time to discharge post-lenzilumab ([3]; 11 discharged patients, range 3-19): 5 days
patients with clinical improvement of at least 2 points on the 8-point ordinal scale ([3]; 11 of 12 patients): 92% and 91.7%
hematological toxicity ([3]; 12 patients): not associated with any hematological toxicity
adverse events attributable to lenzilumab [3, 5]: no treatment-emergent adverse events attributable to lenzilumab
infusion reactions [3, 5]: no infusion reactions
median time to a 2-point clinical improvement ([3]; 95% CI 2-7 days): 5 days
time to resolution of fever in patients febrile at baseline ([3]; after lenzilumab administration): ≤ 48 h
Lymphocytes 1st Lab, summary of patients 1-5 ([3]; average of 5 patients): 1.044
Lymphocytes Last Value, summary of patients 1-5 ([3]; average of 5 patients): 1.422
Lymphocytes Low, summary of patients 1-5 ([3]; average of 5 patients): 0.912
Neutrophils 1st Lab, unlabelled summary line of patients 1-5 ([3]; average of 5 patients): 3.892
Neutrophils High, summary of patients 1-5 ([3]; average of 5 patients): 6.008
Neutrophils Last Value, summary of patients 1-5 ([3]; average of 5 patients): 3.98
mean IL-6 on day 3 ([3]; baseline 26.8 pg/mL, p=0.035): 16.1 pg/mL
mean CRP on day 3 ([3]; baseline 137.3 mg/L, p=0.040): 51.2 mg/L
mean absolute lymphocyte count day 3 ([3]; baseline 0.89, p=0.107): 1.14e+09 L⁻¹
mean absolute neutrophil count day 3 ([3]; baseline 5.1, p=0.27): 4.8e+09 L⁻¹
mean hemoglobin day 3 ([3]; baseline 12.9, p=0.89): 11.4 g/dL
mean temperature at day 3 ([3]; baseline 37.95, p=0.023): 36.97
proportion of patients with SpO2/FiO2<315 at end of observation ([3]; baseline 67%, p=0.00015): 8%
mean platelet count day 3 ([3]; baseline 217.7, p=0.001): 2.618e+11 L⁻¹
deaths / mortality [3]: no reported mortality
deaths / mortality ([3]; listed as lenzilumab): no deaths
patients discharged on home oxygen ([3]; five patients): 42%
ferritin after lenzilumab ([3]; individual patient narratives): 571 µg/L
CRP after lenzilumab ([3]; individual patient narratives, dates in text): 91 mg/L and 46 mg/L
D-dimer after lenzilumab [3, 6]: 1507 ng/mL and 1759 ng/mL and 1802 ng/mL
ferritin after lenzilumab [3, 6]: 1143 µg/L
IL-6 post Rx ([3]; individual patients, data to Apr. 13, 2020): 4.6 pg/mL
ALT after lenzilumab [3]: 175
AST after lenzilumab [3]: 96
ALT after lenzilumab ([3]; listed as lenzilumab): 169 and 137
AST after lenzilumab ([3]; listed as lenzilumab): 203 and 118
patients whose SpO2/FiO2 improved to >315 on day 1 ([3]; of 8 patients <315 at baseline): four
patients with 2-point improvement ([3]; of 12): 1 patients
patients with ≥3-point improvement ([3]; of 12): 10 patients
patients requiring invasive mechanical ventilation ([3]; one patient): 8.3%
cytokines of the cytokine storm (G-CSF, MDC, GM-CSF, IL-1α, IFN-γ, IL-7, FLT-3L, IL-1rα, IL-6, IL-12p70) [3, 7]: significant reduction
IL-6 after lenzilumab ([3]; patient 4, April 8): 95.4 pg/mL
LDH after lenzilumab ([3]; patient 4, April 8): 388 U/L
IL-6 after lenzilumab [3, 8]: 4.6
ferritin after lenzilumab [3, 8]: 1223
hemoglobin at last study observation, same patient ([3]; patient with subcapsular hematoma): 9.3 g/dL
patients requiring mechanical invasive ventilation ([3]; patients 1-5): None
time to clinical two-point improvement faster than comparators ([3]; vs Remdesivir, Lopinavir-Ritonavir (and Tocilizumab)): more than 50%
patients free of ARDS (SpO2/FiO2 of 315 or higher) by end of observation ([4]; 11 patients, P=0.43): 92%
mean SpO2/FiO2 over time post-treatment vs untreated ([4]; P<0.001): statistically significant difference
CRP reduction (mean) ([4]; after 4 days, control −0.95, P .01): 135.8
IL-6 concentration on day 4 ([4]; baseline 28.6 pg/mL, P=0.02): 8.52 pg/mL
mean CRP after treatment ([4]; baseline 172.2 mg/L, 4 days post-treatment, P=0.04): 36.4 mg/L
mean absolute neutrophil count day 4 ([4]; baseline 5.1, P=0.27): 4.8e+09 L⁻¹
mean hemoglobin day 4 ([4]; baseline 12.9, P=0.89): 11.4 g/dL
IL-6 reduction ([4]; baseline vs day 4): 20.1
ALC increase ([4]; control 0.03, P .04): 0.46 × 10*9/L
Mean temperature reduction ([4]; control 0.459, P .02): 1.075
PLT increase (mean platelet count from baseline) ([4]; control 63.2, P .61): 52.5
Ventilator-free survival vs untreated group ([4]; log-rank x^2=3.67, P=0.06): favored
Incidence of IMV [4]: (8%)
Incidence of IMV and/or death [4]: (8%)
Incidence of death [4]: (8%)
Incidence of IMV and/or death ([4]; P .07): 1 patients
Incidence of IMV ([4]; P .10): 1 patients
Incidence of death ([4]; P .43): 1 patients
Incidence of clinical improvement ([4]; P .43 vs control): 11 patients
Incidence of clinical improvement ([4]; at least 2 points on 8-point scale): (92%)
Incidence of clinical improvement ([4]; at least 2 points on 8-point scale, listed as lenzilumab): 92%
Incidence of IMV and/or death ([4]; listed as lenzilumab): 8%
cytokines and chemokines involved in the cytokine storm [4, 7]: significant reduction
Days to resolution of fever ([4]; range 1-6, P .22): 2 days
Days to clinical improvement (median) ([4]; range 1-14, control 11, P .006): 5 days
Days to discharge from hospital (median) ([4]; range 3-19, control 11, P .008): 5 days
Increase in mean absolute lymphocyte counts ([4]; untreated 0.03, P=0.04): 4.6e+08 L⁻¹
